In paper PMC4047056:

Target: Kv2.1 subunit (unlabeled) (human) (UniProt Q14721)

B1: Kv6.4 subunit (unlabeled) (natural protein)
chain: MPMPSRDGGLHPRHHHYGSHSPWSQLLSSPMETPSIKGLYYRRVRKVGALDASPVDLKKEILINVGGRRYLLPWSTLDRFPLSRLSKLRLCRSYEEIVQLCDDYDEDSQEFFFDRSPSAFGVIVSFLAAGKLVLLQEMCALSFQEELAYWGIEEAHLERCCLRKLLRKLEELEELAKLHREDVLRQQRETRRPASHSSRWGLCMNRLREMVENPQSGLPGKVFACLSILFVATTAVSLCVSTMPDLRAEEDQGECSRKCYYIFIVETICVAWFSLEFCLRFVQAQDKCQFFQGPLNIIDILAISPYYVSLAVSEEPPEDGERPSGSSYLEKVGLVLRVLRALRILYVMRLARHSLGLQTLGLTVRRCTREFGLLLLFLAVAITLFSPLVYVAEKESGRVLEFTSIPASYWWAIISMTTVGYGDMVPRSVPGQMVALSSILSGILIMAFPATSIFHTFSHSYLELKKEQEQLQARLRHLQNTGPASECELLDPHVASEHELMNDVNDLILEGPALPIMHM
midpoint of the voltage dependence of inactivation, V1/2, of whole-cell currents in HEK293 cells co-expressing Kv2.1 and Kv6.4 (Kv2.1 alone: −22.6 mV): -59.3 mV
